Data reported in patent US20250051471A1, “Anti-Abcb1 Antibodies” (WILLIAM ROBERT ARATHOON LIVING TRUST DATED AUGUST 29, 2016, priority 2021, published 2025).
Changes are numbered by the printed parent chain.

B1: 15D3hmzhG1 HIR2/Fc/B1.89v1 huL1(KV2) hmz LC: humanized anti-ABCB1 mono arm antibody with B1.89v1 huL1(KV2) light chain (antibody)
heavy: EVQLVESGGVVVQPGGSLRLSCAASGFTFSRYTMSWVRQAPGKGLEWVATISSGGGNTYYPDSVKGRFTVSRDNSKNSLYLQMNSLRTEDTALYYCARYGAGDAWFAYWGQGTLVTVSSASTKGPSVFPLAPSSKSTSGGTAALGCLVKDYFPEPVTVSWNSGALTSGVHTFPAVLQSSGLYSLSSVVTVPSSSLGTQTYICNVNHKPSNTKVDKRVEPKSCDKTHTCPPCPAPELLGGPSVFLFPPKPKDTLMISRTPEVTCVVVDVSHEDPEVKFNWYVDGVEVHNAKTKPREEQYNSTYRVVSVLTVLHQDWLNGKEYKCKVSNKALPAPIEKTISKAKGQPREPQVCTLPPSREEMTKNQVSLSCAVKGFYPSDIAVEWESNGQPENNYKTTPPVLDSDGSFVLVSKLTVDKSRWQQGNVFSCSVMHEALHNHYTQKSLSLSPG
light: DIVMTQSPLSLPVTPGEPASISCRSSQTIVHSNGNTYLEWYLQKPGQSPQLLIYKVSKRFSGVPDRFSGSGSGTDFTLKISRVEAEDVGVYYCFQASHFPRTFGQGTKLEIKRTVAAPSVFIFPPSDEQLKSGTASVVCLLNNFYPREAKVQWKVDNALQSGNSQESVTEQDSKDSTYSLSSTLTLSKADYEKHKVYACEVTHQGLSSPVTKSFNRGEC
modifications: left off: another chain or arm of the molecule
notes: humanized anti-ABCB1 mono arm antibody with B1.89v1 huL1(KV2) light chain
B2: 15D3 hmz HIR2/Fc/B1VL6/CDR3v2a hmz: humanized anti-ABCB1 mono arm antibody with B1VL6/CDR3v2a light chain (antibody)
heavy: B1 heavy
light: B1 light with T28S, I29L, K58N, A96G
modifications: left off: another chain or arm of the molecule; small tags and cut ends

Key:
Assay type in all cases: cell-based
human Red Blood Cells = experiment: Antibody binding to human red blood cells by flow cytometry; conditions: percent of RBC in the R3 gate
Method: (§1) Antibody binding to human and cynomolgus RBC was assessed by flow cytometry. Normal human and cynomolgus whole blood was obtained from BiolVT. RBC were prepared by centrifugation of whole blood aliquots (0.5 mL) for 5 min at 500xg. Supernatant (plasma) was removed, and RBC washed 3 times in D-PBS+1 mM EDTA. After the final wash, the RBC were resuspended in D-PBS+1 mM EDTA to a final volume of 0.5 mL. Washed RBC were then diluted in flow cytometry buffer (D-PBS+2% FBS+0.05% sodium azide) to 2% and dispensed at […] into 96-well plates. An equivalent volume ([…]) of antibody serially diluted in flow cytometry buffer to 2× final was added to the RBC, and the mixture incubated for 1 hour at room temperature. Next, RBC were washed 3 times with flow cytometry buffer and resuspended in 50 μL of Alexa Fluor®647 conjugated Fab fragment goat anti-human IgG diluted 1:200 in flow cytometry buffer. After 20 minutes at room temperature RBC were washed twice, resuspended in flow cytometry buffer and analyzed using an Invitrogen™ Attune™ NXT flow cytometer. […] Left panel, RBC are gated (R1) based on forward and side scatter. Middle panel, a second gate (R2) is applied to eliminate any remaining doublets or aggregates. Right panel, fluorescence of the R2 gated cells is assessed and a final gate (R3) is set using unstained RBC. Cells falling in the R3 gate are defined as “positive” for binding and reported as the percent (of R2 gated cells) that fall in the R3 gate. The results are presented at percent positive which represents the percent of RBC in the R3 gate.

[1] = test system: cynomolgus Red Blood Cells; experiment: Antibody binding to cynomolgus red blood cells by flow cytometry; conditions: percent of RBC in the R3 gate
Method: as §1

N6/ADR cells = experiment: Cytotoxicity potency assay (antibody titrated, vincristine constant)
Method: The relative potency of the samples was evaluated using N6/ADR cells. These cells expressed both ABCB1 and CD47 with the expression of CD47 ˜40-fold higher than ABCB1 as determined by staining with R-phycoerythrin (R-PE) conjugated, commercially available antibodies against ABCB1 (UIC2, Biolegend) and CD47 (CC2C6, Biolegend). This assay also examined the effect of antibodies on vincristine-induced cytotoxicity using the drug-resistant cell line, N6/ADR. However, in this assay format the concentration of vincristine was held constant while the ABCB1 x CD47 BsAbs (or isotype control antibodies) were serially diluted. This assay measured antibody IC50. Lower IC50 meant higher antibody potency.
The potency assay was performed as follows. Cells were plated in 0.05 mL of assay media at 5000 cells/well in white flat bottom 96-well tissue culture plates and incubated overnight at 37° C., 5% CO2. […] An equivalent volume (0.05 mL) diluted antibody/vincristine mixture was transferred to the N6/ADR cells and incubated at 37° C., in 5% CO^2. After 72 hours, plates were removed from the incubator and allowed to equilibrate to room temperature. Viability was assessed using the Promega® CellTiter-Glo® Luminescent Cell Viability Assay according to the manufacturer's recommended protocol.

| Molecule | Binding to human Red Blood Cells % positive D834 (human Red Blood Cells; donor D834) [%] | Binding to human Red Blood Cells % positive D835 (human Red Blood Cells; donor D835) [%] | Binding to human Red Blood Cells % positive D836 (human Red Blood Cells; donor D836) [%] | Binding to human Red Blood Cells % positive D837 (human Red Blood Cells; donor D837) [%] | Binding to cynomolgus Red Blood Cells % Positive Cy744 ([1]; donor Cy744) [%] | Binding to cynomolgus Red Blood Cells % Positive Cy745 ([1]; donor Cy745) [%] | Binding to cynomolgus Red Blood Cells % Positive Cy747 ([1]; donor Cy747) [%] | potency increasing cytotoxicity (N6/ADR cells) |
| --- | --- | --- | --- | --- | --- | --- | --- | --- |
| B1 | 0.2 | 0.2 | 0.1 | 0.1 | 0.3 | 0.6 | 4.0 | lesser potency than the corresponding bispecific antibodies |
| B2 |  |  |  |  |  |  |  | lesser potency than the corresponding bispecific antibodies |
